Data reported in patent US20230137562A1, “TAU AGGREGATION INHIBITORS” (priority 2017, published 2023).
Several values for one entry are separate records, joined by “and”; a condition that tells them apart may be missing. Equal entries are not always repeated. Square brackets hold non-standard residues; d marks the D form. Ends that are not written are not given here. hArg = N=C(N)NCCCC[C@H](N)C(=O)O; Orn = NCCC[C@H](N)C(=O)O

Target: His-Tau40P301L Tau (UniProt P10636-8 1-441)
Test: cell-based or functional assay

Sequence of His-Tau40P301L Tau (P10636 other isoform, or with tags, fused parts or gaps limits assumed): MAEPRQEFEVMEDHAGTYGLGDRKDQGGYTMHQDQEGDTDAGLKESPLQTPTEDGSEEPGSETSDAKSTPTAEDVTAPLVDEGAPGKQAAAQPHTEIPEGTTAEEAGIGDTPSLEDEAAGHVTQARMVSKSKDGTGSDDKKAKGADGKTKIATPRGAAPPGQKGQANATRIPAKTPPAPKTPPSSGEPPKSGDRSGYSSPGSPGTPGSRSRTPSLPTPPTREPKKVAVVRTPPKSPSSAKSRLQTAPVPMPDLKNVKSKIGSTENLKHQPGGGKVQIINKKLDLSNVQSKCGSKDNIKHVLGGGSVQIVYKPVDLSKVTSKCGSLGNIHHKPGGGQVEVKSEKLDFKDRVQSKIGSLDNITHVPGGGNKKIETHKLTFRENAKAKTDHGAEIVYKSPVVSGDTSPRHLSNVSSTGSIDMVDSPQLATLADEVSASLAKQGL

| Binder | IC50 (µM), Tau40 assay (ThT) |
| --- | --- |
| IRIWLW | 4.08 µM |
| LFYLRLR | 7.13 µM |
| WY[Orn]L[Orn]I[Orn]W [WYOLOIOW] | 5.2 µM |
| WRIEIRYW | 12 µM |
| WEIRIRW | 11.1 µM |
| ILRYWH | 2.49 µM |
| RIRLWYW | 8.01 µM |
| RIRAWIW | 14.6 µM |
| FRIRIRF | 6.01 µM |
| WRINIRYW | 7.45 µM |
| RIRIRIW | 2.89 µM |
| WRIEIRW | 4.84 µM |
| RIRRWIW | 4.55 µM |
| WRIAIRW | 4.01 µM |
| RIRIWKW | 5.71 µM |
| W[hArg]I[hArg]I[hArg]W [W(hR)I(hR)I(hR)W] | 6.13 µM |
| WRIFIRYW | 7.67 µM |
| WYRVRGRVW | 6.4 µM and 6.5 µM |
| RIRIWYW | 5.51 µM |
| HWWIRIRYW | 3.11 µM |
| WRIWIRAW | 3.54 µM |
| WRIWIRYL | 4.09 µM |
| RIRIWAW | 8.38 µM |
| WRAWIRYW | 2.59 µM |
| YKLHIRHW | 5.72 µM |
| WRIWARYW | 2.95 µM |
| WRLWIHWW | 2.96 µM |
